Results as given in paper PMC8391104, “Molecular mechanism of Mad1 kinetochore targeting by phosphorylated Bub1” (EMBO Reports, 2021).
pKd: −log10 of the molar value.

Key:
[1] = target: Mad1 C-terminal domain (Mad1^CTD) homodimer, residues 597-718 (human) (UniProt Q9Y6D9); test: ITC; Bub1^CD1 peptide (0.3-1.5 mM) titrated into Mad1 (30-100 µM) in the cell; 20°C; 20 mM HEPES pH 7.5, 100 mM NaCl, 1 mM TCEP; single-site model; stoichiometry counted on dimeric Mad1^CTD
[2] = target: Mad1 C-terminal domain (Mad1^CTD) homodimer, residues 597-718 (human) (UniProt Q9Y6D9); test: crystal structure; co-crystallisation of Mad1^CTD (0.35 mM) with Bub1^CD1 peptide at 2.5 mM in 5% DMSO (or 5 mM in 10% DMSO); 10% isopropanol, 0.1 M Na HEPES pH 7.5, 20% PEG 4000; 21°C
[3] = target: Mad1 C-terminal domain (Mad1^CTD) homodimer, residues 597-718 (human) (UniProt Q9Y6D9); test: NMR titration; 31P 1D spectra of phosphorylated Bub1^CD1 peptide with Mad1^CTD dimer at 1:1 and 1:2 dimer to peptide, around 0.25 to 0.5 mM of each; 50 mM HEPES pH 7.0, 100 mM NaCl, 2 mM TCEP, 0.02% NaN3, 298 K
[4] = target: Mad1 C-terminal domain (Mad1^CTD) homodimer, residues 597-718 (human) (UniProt Q9Y6D9); test: NMR titration; 1H,15N 2D HSQC of 15N-labelled Mad1^CTD with unlabelled peptide added (dimer to peptide 1:0.5 to 1:4); 50 mM HEPES pH 7.0, 100 mM NaCl, 2 mM TCEP, 0.02% NaN3, 298 K
Mad1 CTD, 597-718 = Mad1 CTD, 597-718 (UniProt Q9Y6D9); test: 1H,15N HSQC titration of 15N-Mad1CTD; settings: reference: non-phosphorylated peptide; sites S459,T461

Sequence of Mad1 C-terminal domain (Mad1^CTD) homodimer, residues 597-718 (human) (Q9Y6D9 597-718): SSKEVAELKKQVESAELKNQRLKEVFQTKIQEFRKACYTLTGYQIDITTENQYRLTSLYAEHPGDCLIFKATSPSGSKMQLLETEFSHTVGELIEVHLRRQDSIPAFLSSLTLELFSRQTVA

Row | Substance | pKd [1] | stoichiometry N (peptide per Mad1 dimer) [1] | stoichiometry N (peptides per Mad1^CTD homodimer) [2] | stoichiometry N (peptide per Mad1^CTD dimer) [3] | stoichiometry N (peptide per Mad1^CTD dimer) [4] | binding against the reference (Mad1 CTD, 597-718)
1 | doubly phosphorylated Bub1^CD1 peptide (pSer459-pThr461) | 5.57 | 1 | 2 | 1 | 1 | –
2 | singly phosphorylated Bub1^CD1 peptide (pThr461) | 5.48 | – | – | – | – | –
3 | Bub1 CD1, 455-479 (from UniProt O43683) phosphorylated peptide | – | – | – | – | – | gained
